Test: soluble fraction after stress (log2 fold change); higher = more stays soluble; pooled small domains, quantitative proteomics
Settings: stress: 75 degC
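Further: 20 min heating vs room temperature control held 20 min.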

Row | Sequence | soluble fraction (log2)
1 | HMTEFWTGPITTVTKANFADWTLDTNQDRITANVWLTRADSKGLFNITPGKETAFDIVDYLSPLDTEWA | -0.209
2 | HMTEGDRLARRILRLVRNKPNGYPEVELMKATVLDWNHFQRSISSLEMAGILERRDPGDGTPPVWVEKR | -1.53
3 | HMTEKIEWYKEVLDLEPNSKIFFPLAKMLEKEGELEEARRVLAEGVSRHEEFLEARLFYISVLSRL | -0.301
4 | HMTENLELLATGSLWTEPDGSGKIISYLIPGLRVKKLETNGIFYKIQLQNGLIGWADQSLFTIAEPK | -1.62
5 | HMTENQKNIDLIKIVSLLVHAAKIDENYTNKEKELIINFINNFSKENKQNIKSSEILEEAEKYEK | 0.132
6 | HMTEPKRIVDHWQPSDDVYDILRMSHIDLDFARSLLPEFIVYWKDSSQTHTSWNSKFLQHAKYHWAKRHQL | -2.27
7 | HMTEPLTKREKEVLLLLPRGLTAKAMASELFLTEATIKSHLAAIFRKFKVVNRTQAIAIAVESKILT | -2.41
8 | HMTESLVITVDPALHGLRLDRGLADALPDRSRSEVQRWIKEGRVQLHGAPAKPSLKLAAGDIVTIALPEE | 0.442
9 | HMTESSTYFEKIGTEISQFKSIPKNIDVIIIEKLIYSGIIKKVDNEENSRVYYILTRKGRYFWKRYVLS | 0.16
10 | HMTETFVLNLRQPIAAAPVLPGYRVARTDEQTLEVEVSKDQNLNEIFTALSALGVEVLSMRNK | -0.0438
11 | HMTFAEADAQYEVIKQQYLAGALDEEQFDEQLHRLMVLDDGGLWWAKSRENGSWHYYDPDREDWIAATP | -0.394
12 | HMTFEAKKGYINADMSVNVRETASTSATVIITLNPNTEVKVVGEENDFYKIEYKEYKGYVAKRLISDSQVQ | -0.747
13 | HMTFPTEAKLTGDKVFVRSGPSTQSQRLTNLAINSVVTVLAREMGDMQYPWYKVRYSDGEGWVYGQYVEAI | -1.08
14 | HMTFTQFAESHGVIIKSLKASDKIQRGPTVAHPKSDNGAWLWDGNRGGVMAWDGDGQWYWFK | -1.73
15 | HMTGEERRMNTADLYRRRGMELFKRKIYVDAIDSLKVSLEYEDNATTRYYLDLATKRYQDLKIS | -2.13
16 | HMTGETWAERSRALAAAGLIVMGQEAKNKIEDLPSLSPLIEAAAASETRLLTGQIIDELLAFV | -0.589
17 | HMTGIELLSHREHQVYDLLTQGRTVTEIGAQLNLAPNTVSTYRARILEKTGTKNDVELALYAQRH | -0.22
18 | HMTGKASEIAALLEQRIAAGDYPAGSKLPSERELAASFHVSRNTIRDAIALLAARKIVSTKWGAGTVVLG | -0.967
19 | HMTGLRETIPAALDGERLDRVVALLGDVSRSRASAALEAERVTLDGEVVTLRSHRVREGEELTVAGFE | 0.417
20 | HMTGLSAQILAKLRDNHGVLPVSDKSDPAVISNLFGVSKGNFKKAIGGLYKEGQIVIHADRIEL | -0.0972
21 | HMTGLSFEEKDLLGNALKLLDETERRIVILHATSGLKHREIAKQLDIPLPTVLSKYTRAIKKLKKHME | -1.14
22 | HMTGPSYTTRRVEAAETMMEFLRTFPQAAPFIGDLYVKAQDWPLGEEIGDRLKKMLPPQLQE | -0.698
23 | HMTGQVASMVERLAQRLKDQPQDAEGWAMLARSYSVLGRHPEALQAYEKALALRKDDANLLADYADSLA | -0.23
24 | HMTGRHEEAIQELKRTLELHPQKPKIFLLLGVSYLRLNNLKKAVEAFNTVLLLQPKNQKALTMLKEIKKR | -0.178

Row | Sequence | soluble fraction (log2)
25 | HMTGSLLVEVQGRPDADRLLGQALVDAGLTARPAGGALIEVEVRDETTPDVVRDLTVDLGLGLVRMQERH | -0.548
26 | HMTGSLRIKHKTYYMLFSWKDESGQWRQKSESTGIPERGGKRKAQEMLNTRLEELQLQSTASL | -3.87
27 | HMTGSLRVTSSPSGAEIYVDEIYRGYTPLTIGSLSTGRHEVRLHLSGYQDYTRTVEIESGSQSSFSVTLT | -1.46
28 | HMTGSTSVAQVSTPSGSLNLRAYASTSARVLLQIPEYAFVTVYNRGATWSYVSYNGVSGYVMSVYLSFGG | -2.31
29 | HMTGTVKVNSLNVYKSASLDSEVKDTLVLNTKVTIAENGQVTDGIYVWGRLQSGEGYVQMNNLTL | -0.418
30 | HMTHRRLELTLDAIDERLDRALTAAVPELSRMQWQRLIREGLVTVDGERARPSYRIQGGETLVALVPEV | -0.448
31 | HMTIAEGLIFRFTEPFKPIDQYTYYIMGDNKVEQIPNFKTLEVMLAQRNQNYLSVRVIEKSQLDDILKEF | -4.16
32 | HMTIDETKKQQVKDGLKDIPGVTVEFVGDKAVLKGAVTDANRVKIMQIVMAAKVLSDASGLTSK | -0.422
33 | HMTIDTSNDLLNQITEATSKGPISILELKDQLNVNASDIEGELRTLIDQHLVFLKDGMLQVIPFD | 0.797
34 | HMTIEEMAIENINFSTQLLYKAMKYNGVNTVGDLLEKARSKKDLLTMAYIGNKEAEEIIEKLSELGITI | -1.63
35 | HMTIFGWQQDETGKWYRNADGTFYENGWKEIDGAQYYFDENGYVTTGWLELDGKDYYFDEEGKYDSTKVR | -0.445
36 | HMTIGPALAIGGNKVEMTQQGKIQVTNPQGKIKTLSQDEFKKQLVKNADKIEAGQDFEFKKD | 0.275
37 | HMTIKLFPNPSTDFIRVSELSAKENYKIYTILGSEIKRGSVSNNETIDIRNLNSGVYLLKFDNGTTKKIVK | -1
38 | HMTIKTAFPAEDLAKPDNFKSLLYYFGLLTIRGTKWGSTLLAIPNLTVREQLYSYLVEAYRSADL | 0.331
39 | HMTILKEGMSGPEVERLQDALKRHGFDPGRVDGQFGPGTEAAILAFQKSEGLRADGVAGPKTQQALGLE | 0.121
40 | HMTIRLKELRKQKGNTQAEVAKILGTNQSQYGKYENERTQLSLDNAKILSDYFGVSVPYLLGLDDNP | -0.361
41 | HMTISDTAYQAFLEQLGVGMVVEHKRFGEGVITGMPKGKIRITFEEGTKSFQARALAESGMLK | -0.875
42 | HMTISIAEQIFEQLEREILSGAYPRGELLTETKLSEKLGVSRTPIREALRRLDQEHIIKMTTKGAFVLGI | -2.4
43 | HMTITIGNSDGGYMKMGADGFEVRFSGSDGGNHYAKMYYNNDGWARLTLGSYGEEKARIDSDGMIQTR | 0.108
44 | HMTKEAIAQKLRIARQESGLTQKDVSAKIGRPQQTIASWEVGRSQPDADTLYSLLLLYKVSPNTFFEYD | -1.18
45 | HMTKEEIVVNWLPRYTKRNLEDFGEYILLTNFNKYVEIFAEKFNVPILGRDANMISASAEGITIIN | -0.409
46 | HMTKEEREKREKYEKLMKKAEELTAAKNHREVINVLGQAKAYATAAQLKEIEEKIKAATSEMNK | 0.326
47 | HMTKEGVNISITADGVQLSTESPNRVSIFNVNGTKVWEGIAPANVSLQKGVYILQTANGNTKFV | 0.597
48 | HMTKLLITNYERNVLINSYLLKNTPELDDIRRLLVHNKHISENDVSTEMARRIKKHKADWLRVT | -3.4

Row | Sequence | soluble fraction (log2)
49 | HMTKLTPLEVNLYAKKLANDPEFGSKHIEPGESFSQAEERLRVQLSQQEYVQKYSKYLKKLKASA | -0.198
50 | HMTKPAEVRIDELMNAAQTLFLAKGVEATTISEIIASVGVAKGTFYHYFESKQHIVEALKKRYID | -1.85
51 | HMTKQNVVPLMYRMIDTLEQFIKADVPFNIETRLARVERLRETMVSSSVTTSEKFRQVLEAYTIETD | -1.05
52 | HMTKSEWLRESREHLGLSQTDLRNLLNTALNRSYDKSRISRWENSKENIPAEVVKQIESLIATR | -0.0559
53 | HMTKTRTEILEYLKQNWSVTVSASDIKKHLEEKEIKANTTTIYRYLDKLLAEHVIIKYADAGSERAVYQYS | -2.23
54 | HMTKVIEFLVSDEEHGVRADKAFVSHNQKLSRSYFKKLILNGNLYINNKVNLDPSYKLIKGSTVRIILPE | -2.58
55 | HMTKVKIDRLFSIVQMLVNRKSVTAKELADYFNVSVRTIYRDIEILSANGIPIYATQGKGGGISILEN | -1.74
56 | HMTKYEGLSLDLIIDGVVITHNLKLAKLDMNWLLDRLKENGWDNPKDIFYAYIDTAGNFRFQPKLKASRTR | 0.473
57 | HMTKYREVLRMSAGGFSQRVIASTLSISRNTVASTLKRAREQNLDWEAVEQQRLSEKDIANLLFP | -3.22
58 | HMTLAEEFNNLNGKVITRETLESLLVKAEKEQNSTISNRIRKVLQAYTADTFLIELQHTESA | -0.0241
59 | HMTLALKQGSTGSTVKQVQQKLKNWGYYSGAVDGIFGSGTRKAVVLFQKRNKLTADGIVGSKTLEALGIYV | -2.36
60 | HMTLDDSIALGRSLLDKGLMDFGTNLANLAEDKLRDFLSQQRYENLDDLFADIARGNRLPMFTAQQLLS | -0.0666
61 | HMTLDVALSKEIKYMLKEEHYLPGDKLPSERKLAELFHVQRLTVRGALNLLLQDKTIISKPRSGYYVAPKR | -2.88
62 | HMTLFDESGYTARELEIIREVANGLSNKEIADKLFLSEGTVKNYITGILAKENLSHRTALAVYYLTGRK | -1.83
63 | HMTLHEAMEKLFRQVGRPMTTKEIAEKLNENKWYQKADGSPLTPYQIYGRAKNYPALFHREGSIIYLKGS | -0.547
64 | HMTLKTISLTEAIKNTNEGNYSKLVLDGNELTITEQGKETPSLKTYTEPGTSLKEQGFDLSKVEFEAREQS | -0.0223
65 | HMTLNQEELMGKTEAILFAGGEPVSLDRIAQVLGVRTPVIDSIVSALQEKYNTPTSGIQLMRL | -0.267
66 | HMTLPELTDRELQILQLLSVGNSSQKIAKQLNISTHTVSTHRKQLLRKLGAQNGADLIRRAQKLGIL | -1.78
67 | HMTLQEFYARVGGDYNATLSRLPSEALVKKFILKYPGDPSFAQLKDALAAQDWELAFRASHTLKGVAQN | -1.9
68 | HMTLSAPMPGTVLKIHVKEGQRVRKGQTLVVLEAMKMEHRIQAPKAGEVTNLHFSEGDRVDMGEILVEIG | -2.34
69 | HMTLSDDEFEIIKSLIIDTLKEEALTINALTKKINHKEAKTIQVIRFLLDNGLVAENNLMKLFVI | -1.43
70 | HMTLTIEDQLRRLRARLGRGRAFLFSDVLVNPHDRTEIAVTLLALLELIKRREAQASQSYLFGPIEVAAA | -2.01

— the domain aggregation screens of Martell et al. (2025)
